Data taken from publication doi:10.1101/2021.07.07.451439.

How the values were obtained:
TCEAL4 = TCEAL4 (UniProt Q96EI5); experiment: GFP-NanoTrap IP, blot of lower MW TCEAL4; settings: reference: wild type GFP-USP7; sites S18
TRIM27 = TRIM27 (UniProt P14373); experiment: GFP-NanoTrap IP of GFP-USP7, immunoblot; settings: reference: wild type GFP-USP7; sites S18

USP7 (from UniProt Q93009) S18A
binding against the reference (TCEAL4): stronger
binding against the reference (TRIM27): stronger
